{
  "source": "patent US20040092714A1",
  "biological_target": "OSCAR specific ligand expressed on the surface of primary murine osteoblast cells (murine)",
  "assay": "cell-based or functional assay",
  "data": [
    {"substance": "soluble murine OSCAR-Ig fusion polypeptide (extracellular domain of murine OSCAR fused to the Fc region of human IgG1) (Fc fusion)", "values": [
      {"measurement": "dentine resorption pits per slice (pits per slice)", "result": 7},
      {"measurement": "inhibition of dentine resorption (fold)", "result": "> 10", "unit": "fold"}
    ]}
  ]
}
